From paper PMC4346865
Values joined by “and” are separate entries in the source; they are usually repeats but may differ in a detail not shown here. Equal entries are not always repeated.

How the values were obtained:
[1] = target: T1, alpha toxin (alpha-hemolysin) (Staphylococcus aureus, UniProt P09616 27-319); experiment: SPR; […] (pH not stated); SPR temperature not stated; […]; settings: protein: commercial; stem-loop (Mfold)
[2] = target: T1, alpha toxin (alpha-hemolysin); experiment: SPR; assay 1; […] (pH not stated); SPR temperature not stated; […]; settings: protein: commercial; stem-loop (Mfold)
[3] = target: T1, alpha toxin (alpha-hemolysin); experiment: SPR; assay 2; […] (pH not stated); SPR temperature not stated; […]; settings: protein: commercial; stem-loop (Mfold)
[4] = target: cholera toxin (UniProt P01555;P01556 19-258;22-124); experiment: […] (pH not stated); SPR temperature not stated; […]; settings: protein: commercial; copies: 1;5; stem-loop (Mfold)
[5] = target: T1, alpha toxin (alpha-hemolysin); experiment: as above; settings: protein: commercial; stem-loop (Mfold)
[6] = target: toxin B (UniProt P18177 2-2366); experiment: as above; settings: protein: commercial; stem-loop (Mfold)
[7] = target: exotoxin A (UniProt P11439 26-638); experiment: fluorescence plate binding; p = 0.004; […] (pH not stated); SPR temperature not stated; […]; settings: protein: commercial; stem-loop (Mfold)
Sequence of exotoxin A (P11439 26-638): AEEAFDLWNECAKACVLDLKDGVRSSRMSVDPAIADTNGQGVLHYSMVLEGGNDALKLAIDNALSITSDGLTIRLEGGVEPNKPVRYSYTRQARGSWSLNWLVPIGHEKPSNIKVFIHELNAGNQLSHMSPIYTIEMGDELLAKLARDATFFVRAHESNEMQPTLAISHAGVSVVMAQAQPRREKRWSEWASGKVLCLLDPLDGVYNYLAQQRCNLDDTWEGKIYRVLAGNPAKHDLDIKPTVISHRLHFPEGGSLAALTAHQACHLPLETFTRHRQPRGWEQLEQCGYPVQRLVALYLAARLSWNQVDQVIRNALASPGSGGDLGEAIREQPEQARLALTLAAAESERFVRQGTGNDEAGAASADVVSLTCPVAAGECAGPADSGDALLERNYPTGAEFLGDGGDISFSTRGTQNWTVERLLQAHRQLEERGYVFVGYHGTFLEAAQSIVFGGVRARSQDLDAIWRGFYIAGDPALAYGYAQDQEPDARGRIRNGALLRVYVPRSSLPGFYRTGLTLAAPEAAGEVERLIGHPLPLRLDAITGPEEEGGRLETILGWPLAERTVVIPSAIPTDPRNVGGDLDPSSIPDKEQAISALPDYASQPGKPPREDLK

T1 sequence (P09616 27-319): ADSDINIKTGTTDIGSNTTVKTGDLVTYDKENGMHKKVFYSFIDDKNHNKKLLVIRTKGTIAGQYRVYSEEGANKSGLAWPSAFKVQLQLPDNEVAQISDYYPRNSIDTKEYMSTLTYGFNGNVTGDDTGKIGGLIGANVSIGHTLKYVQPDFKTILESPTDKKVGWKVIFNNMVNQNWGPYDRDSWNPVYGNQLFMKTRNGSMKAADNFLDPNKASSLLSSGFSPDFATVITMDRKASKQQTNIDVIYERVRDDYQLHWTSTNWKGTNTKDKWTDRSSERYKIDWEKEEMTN
Sequence of toxin B (P18177 2-2366): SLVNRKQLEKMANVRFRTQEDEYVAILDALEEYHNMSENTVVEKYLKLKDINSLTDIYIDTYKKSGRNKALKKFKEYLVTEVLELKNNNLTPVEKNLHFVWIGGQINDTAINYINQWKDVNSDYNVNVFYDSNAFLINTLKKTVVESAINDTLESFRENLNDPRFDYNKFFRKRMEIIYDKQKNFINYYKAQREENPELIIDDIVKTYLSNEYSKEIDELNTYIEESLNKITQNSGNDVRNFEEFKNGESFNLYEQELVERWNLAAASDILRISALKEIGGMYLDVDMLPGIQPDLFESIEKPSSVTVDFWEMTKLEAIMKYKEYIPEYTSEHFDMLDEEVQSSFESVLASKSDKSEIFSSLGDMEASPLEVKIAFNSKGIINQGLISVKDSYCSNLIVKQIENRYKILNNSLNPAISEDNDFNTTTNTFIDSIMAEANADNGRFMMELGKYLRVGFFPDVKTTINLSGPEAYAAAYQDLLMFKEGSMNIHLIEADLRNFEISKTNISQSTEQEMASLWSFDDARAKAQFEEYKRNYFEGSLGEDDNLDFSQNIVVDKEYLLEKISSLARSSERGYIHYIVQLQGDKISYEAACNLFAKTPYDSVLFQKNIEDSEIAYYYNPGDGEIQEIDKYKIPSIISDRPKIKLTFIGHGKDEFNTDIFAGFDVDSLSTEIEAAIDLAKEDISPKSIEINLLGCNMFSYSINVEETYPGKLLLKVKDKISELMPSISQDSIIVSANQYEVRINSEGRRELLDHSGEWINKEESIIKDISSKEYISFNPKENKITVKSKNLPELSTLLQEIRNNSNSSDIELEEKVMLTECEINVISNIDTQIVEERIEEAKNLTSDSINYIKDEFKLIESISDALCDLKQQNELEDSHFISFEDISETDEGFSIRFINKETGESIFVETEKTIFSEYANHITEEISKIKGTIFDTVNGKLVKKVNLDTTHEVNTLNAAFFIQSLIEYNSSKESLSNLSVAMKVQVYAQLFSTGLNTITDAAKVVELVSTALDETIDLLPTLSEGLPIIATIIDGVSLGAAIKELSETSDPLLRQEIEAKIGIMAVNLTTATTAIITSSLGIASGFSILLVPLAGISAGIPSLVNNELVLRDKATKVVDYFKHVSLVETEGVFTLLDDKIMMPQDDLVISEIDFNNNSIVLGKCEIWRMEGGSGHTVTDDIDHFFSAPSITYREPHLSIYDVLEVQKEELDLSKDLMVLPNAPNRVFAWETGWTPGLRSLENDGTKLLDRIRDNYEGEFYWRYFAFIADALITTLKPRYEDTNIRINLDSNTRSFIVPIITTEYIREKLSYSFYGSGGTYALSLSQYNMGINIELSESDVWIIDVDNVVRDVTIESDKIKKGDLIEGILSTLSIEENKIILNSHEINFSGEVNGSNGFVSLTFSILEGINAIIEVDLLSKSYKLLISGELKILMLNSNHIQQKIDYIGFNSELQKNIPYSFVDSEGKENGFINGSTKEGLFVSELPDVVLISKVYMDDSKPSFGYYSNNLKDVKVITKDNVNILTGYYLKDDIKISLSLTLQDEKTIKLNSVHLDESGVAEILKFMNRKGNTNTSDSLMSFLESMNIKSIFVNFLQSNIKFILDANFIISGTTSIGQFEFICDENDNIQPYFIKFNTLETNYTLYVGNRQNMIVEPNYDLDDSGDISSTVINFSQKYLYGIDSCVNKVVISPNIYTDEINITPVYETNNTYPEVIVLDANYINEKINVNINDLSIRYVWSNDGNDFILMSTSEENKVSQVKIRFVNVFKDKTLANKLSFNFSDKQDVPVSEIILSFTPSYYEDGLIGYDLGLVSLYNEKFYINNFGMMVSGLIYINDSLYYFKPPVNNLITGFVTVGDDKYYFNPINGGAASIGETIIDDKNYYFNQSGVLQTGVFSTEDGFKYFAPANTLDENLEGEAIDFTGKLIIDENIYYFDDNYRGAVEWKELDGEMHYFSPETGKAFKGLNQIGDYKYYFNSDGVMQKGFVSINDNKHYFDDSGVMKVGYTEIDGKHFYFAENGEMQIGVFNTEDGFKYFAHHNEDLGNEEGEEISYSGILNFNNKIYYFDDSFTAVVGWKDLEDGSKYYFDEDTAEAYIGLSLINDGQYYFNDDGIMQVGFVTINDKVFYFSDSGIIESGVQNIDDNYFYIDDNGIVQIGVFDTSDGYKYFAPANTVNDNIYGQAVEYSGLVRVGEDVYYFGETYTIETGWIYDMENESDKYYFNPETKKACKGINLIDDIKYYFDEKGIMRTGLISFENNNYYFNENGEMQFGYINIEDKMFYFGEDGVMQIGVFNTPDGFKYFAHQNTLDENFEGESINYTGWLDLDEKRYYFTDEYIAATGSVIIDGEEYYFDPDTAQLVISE
Sequence of cholera toxin (P01555 19-258, chain 1 of 2): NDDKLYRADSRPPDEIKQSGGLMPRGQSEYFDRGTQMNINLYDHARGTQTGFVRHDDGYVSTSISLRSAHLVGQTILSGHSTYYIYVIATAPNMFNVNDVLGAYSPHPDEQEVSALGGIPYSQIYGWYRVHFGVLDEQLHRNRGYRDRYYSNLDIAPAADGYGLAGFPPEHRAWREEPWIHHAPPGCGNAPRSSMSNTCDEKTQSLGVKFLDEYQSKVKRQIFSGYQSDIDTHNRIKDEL
Sequence of cholera toxin (P01556 22-124, chain 2 of 2): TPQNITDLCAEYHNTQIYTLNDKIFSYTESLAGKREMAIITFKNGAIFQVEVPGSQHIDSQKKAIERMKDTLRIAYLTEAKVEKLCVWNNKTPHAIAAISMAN

| Binder | Kd [1] | Kd [2] [nM] | Kd [3] [nM] | binding signal [4] | binding signal [5] | binding signal [6] | binding signal [7] |
| --- | --- | --- | --- | --- | --- | --- | --- |
| R12.06 (5'-amino-C6) (ssDNA, 5' amino-C6) DNA: TGTACCGTCTGAGCGATTCGTACGATTACTATAATTTCCTATCGTCCGACCGCCGTCAGCCAGTCAGTGTTAAGGAGTGC | 93.7 nM and 90.7 nM | 102 | 88.7 |  |  |  |  |
| R12.06 (FAM) (ssDNA) DNA: TGTACCGTCTGAGCGATTCGTACGATTACTATAATTTCCTATCGTCCGACCGCCGTCAGCCAGTCAGTGTTAAGGAGTGC |  |  |  | 1.5 fold lower than alpha toxin | 1 relative to alpha toxin | 5 fold lower than alpha toxin | 1.5 fold lower than alpha toxin |
